Laboratory results as given in patent US20200384061A1 (JCR PHARMACEUTICALS, published 2020).
Where two headings read alike, the source gives them in different places. Blank lines part the entries; values can stand above or below the binder they belong to.

How the values were obtained:
[1] = biological target: human TrkB (GenBank Acc. No. NP_001018074.1) expressed in CHO cells (CHO-TrkB cells) (human, UniProt Q16620 32-822); assay: cell-based or functional assay
[2] = biological target: T1, recombinant monkey TfR (r monkey TfR, Sino Biological Inc.), extracellular region of cynomolgus monkey TfR … (cynomolgus monkey (Macaca fascicularis), UniProt Q5RDH6 89-760 (Pongo abelii entry)); assay: BLI (OctetRED96); fusion protein captured via biotin-labeled anti-human BDNF antibody on SA biosensor, TfR in solution
T1 construct: not shown: histidine tag added to the N-terminus
T1 chain: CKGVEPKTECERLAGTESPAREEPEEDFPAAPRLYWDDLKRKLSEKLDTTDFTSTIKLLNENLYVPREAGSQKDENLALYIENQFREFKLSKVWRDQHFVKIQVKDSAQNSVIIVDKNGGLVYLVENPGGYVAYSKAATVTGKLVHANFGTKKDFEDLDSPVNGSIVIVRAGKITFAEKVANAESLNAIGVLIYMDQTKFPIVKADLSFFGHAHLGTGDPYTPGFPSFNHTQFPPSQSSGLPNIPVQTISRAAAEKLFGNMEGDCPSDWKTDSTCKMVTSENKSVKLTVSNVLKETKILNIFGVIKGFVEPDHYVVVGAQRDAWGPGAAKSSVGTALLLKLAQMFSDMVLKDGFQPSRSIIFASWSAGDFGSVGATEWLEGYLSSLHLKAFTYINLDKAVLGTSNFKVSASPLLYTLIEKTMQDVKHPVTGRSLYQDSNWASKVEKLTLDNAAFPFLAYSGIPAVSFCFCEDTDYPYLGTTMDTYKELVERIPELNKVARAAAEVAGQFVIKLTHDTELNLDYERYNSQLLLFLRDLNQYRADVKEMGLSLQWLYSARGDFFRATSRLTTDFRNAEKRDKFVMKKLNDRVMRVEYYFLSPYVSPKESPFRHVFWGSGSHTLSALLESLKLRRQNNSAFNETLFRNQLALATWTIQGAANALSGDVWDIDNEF
Procedure: (§1) Affinities of the hBDNF-anti-hTfR antibody (3N) 1 prepared in Example 22, to human TfR and to monkey TfR were measured. The measurement was generally performed by the following method. The biotin-labeled rabbit anti-human BDNF polyclonal antibodies (anti-human BDNF antibodies: PeproTech Corporation) was diluted with HBS-P+(1% BSA) (10 mM HEPES containing 150 mM NaCl, 50 μM EDTA, 0.05% Surfactant P20, and 1% BSA) to prepare the 15 μg/mL of solution, and the solution was designated as ligand solution 1. The purified product of an anti-hTfR antibody fusion BDNF (hBDNF-anti-hTfR antibody (3N) 1) was diluted with HBS-P+(1% BSA), and the solution was designated as ligand solution 2. And, as the reference control sample, the purified product of the hBDNF-anti-hTfR antibody (3) 1 obtained in Example 15-3 was also diluted with HBS-P+(1% BSA) to prepare ligand solution 3. r human TfR and r monkey TfR were respectively two fold serial diluted with HBS-P+(1% BSA) to prepare seven different concentrations of 0.78125 to 50 nM ([…] to 3.74 μg/mL). These TfR solution were used as TfR sample solutions.
(§2) The OctetRED96 was run under the condition shown in the following Table 15-3 to immobilize the anti-human BDNF antibody onto the sensor. Subsequently, after the OctetRED96 was run under the condition shown in the following Table 15-4 to obtain data, binding interaction curve was fitted to a 1:1 binding model or to a 2:1 binding model using the analysis software attached to the OctetRED96, the association rate constant (kon) and the dissociation rate constant (koff) of the anti-hTfR antibody fusion BDNF to r human TfR, and to r monkey TfR were measured, and the dissociation constant (KD) were calculated. The measurement was performed at 25° C. to 30° C.

[3] = biological target: T2, recombinant human TfR (r human TfR, Sino Biological Inc.), extracellular region of hTfR with N-terminal … (human, UniProt P02786 89-760); assay: as above
T2 construct: also called r human TfR-ECD (Histag); recombinant hTfR; not shown: histidine tag added to the N-terminus
Procedure: as §1, §2

[4] = biological target: TrkB receptor on rat primary cultured neurons (corpus striatum of rat embryo) (rat, UniProt Q63604 32-821); assay: cell-based or functional assay
[5] = biological target: T1, recombinant monkey TfR (r monkey TfR, …); assay: BLI (OctetRED96); fusion protein captured via biotin-labeled anti-human BDNF antibody on SA biosensor, TfR in solution
Procedure: (§3) Affinities of a hBDNF-anti-hTfR antibody (3N) ABD to human TfR, monkey TfR, and human serum albumin (HSA) were measured on OctetRED96 (ForteBio Corporation, a division of Pall Corporation) which is a system for biomolecular interaction analysis utilizing biolayer interferometry (BLI), as same as Example 25. The measurement was generally performed by operation manual attached to the OctetRED96.
(§4) The biotin-labeled rabbit anti-human BDNF polyclonal antibodies (anti-human BDNF antibody: PeproTech Corporation) was diluted with HBS-P+(1% BSA) (10 mM HEPES containing 150 mM NaCl, 50 μM EDTA, 0.05% Surfactant P20, and 1% BSA) to prepare 25 μg/mL of solution, and the solution was designated as ligand solution 1. A purified product of an hBDNF-anti-hTfR antibody (3N) ABD was diluted with HBS-P+, and the solution was designated as ligand solution 2. r human TfR and r monkey TfR were respectively two-fold serial diluted with HBS-P+ to prepare seven-different concentration of 0.78125 to 50 nM (0.0585 to 3.74 μg/mL). These TfR solution were designated as a TfR sample solution. The r human TfR and the r monkey TfR, those described in Example 7 were used. And, human serum albumin preparation (HSA) (blood donation albumin 25-Nichiyaku, Nihon Pharmaceutical Co., Ltd.) was two-fold serial diluted with HBS-P+ to prepare solution of seven-different concentration of 3.13 to 200 nM (0.208 to 13.3 μg/mL). The HSA solution were designated as an HSA sample solution.
(§5) The OctetRED96 was run under the condition shown in the following Table 15-3 described in Example 25 to immobilize the anti-human BDNF antibody onto the sensor. Subsequently, after the OctetRED96 was run under the condition shown in Table 16-2 to obtain data, binding interaction curve was fitted to a 1:1 binding model using the analysis software attached to the OctetRED96, the association rate constant (kon) and the dissociation rate constant (koff) of the hBDNF-anti-hTfR antibody (3N) ABD, to r human TfR, r monkey TfR, and HSA were measured, and a dissociation constant (KD) were calculated. The measurement was performed at 25° C. to 30° C.

[6] = biological target: T2, recombinant human TfR (r human TfR, …); assay: as above; remark: listed apart in the source
Procedure: as §3, §4, §5

[7] = biological target: T3, human serum albumin preparation (HSA) (blood donation albumin 25-Nichiyaku, Nihon Pharmaceutical Co., Ltd.) (human, UniProt P02768 25-609); assay: BLI (OctetRED96); fusion protein captured via biotin-labeled anti-human BDNF antibody on SA biosensor, HSA in solution
T3 construct: mature
Procedure: as §3, §4
as §5, with “The measurement was performed at 25° C. to 30° C.” left out

[8] = biological target: T1, recombinant monkey TfR (r monkey TfR, …); assay: BLI (OctetRED96)

Sequence of human TrkB (GenBank Acc. No. NP_001018074.1) expressed in CHO cells (CHO-TrkB cells) (Q16620 32-822): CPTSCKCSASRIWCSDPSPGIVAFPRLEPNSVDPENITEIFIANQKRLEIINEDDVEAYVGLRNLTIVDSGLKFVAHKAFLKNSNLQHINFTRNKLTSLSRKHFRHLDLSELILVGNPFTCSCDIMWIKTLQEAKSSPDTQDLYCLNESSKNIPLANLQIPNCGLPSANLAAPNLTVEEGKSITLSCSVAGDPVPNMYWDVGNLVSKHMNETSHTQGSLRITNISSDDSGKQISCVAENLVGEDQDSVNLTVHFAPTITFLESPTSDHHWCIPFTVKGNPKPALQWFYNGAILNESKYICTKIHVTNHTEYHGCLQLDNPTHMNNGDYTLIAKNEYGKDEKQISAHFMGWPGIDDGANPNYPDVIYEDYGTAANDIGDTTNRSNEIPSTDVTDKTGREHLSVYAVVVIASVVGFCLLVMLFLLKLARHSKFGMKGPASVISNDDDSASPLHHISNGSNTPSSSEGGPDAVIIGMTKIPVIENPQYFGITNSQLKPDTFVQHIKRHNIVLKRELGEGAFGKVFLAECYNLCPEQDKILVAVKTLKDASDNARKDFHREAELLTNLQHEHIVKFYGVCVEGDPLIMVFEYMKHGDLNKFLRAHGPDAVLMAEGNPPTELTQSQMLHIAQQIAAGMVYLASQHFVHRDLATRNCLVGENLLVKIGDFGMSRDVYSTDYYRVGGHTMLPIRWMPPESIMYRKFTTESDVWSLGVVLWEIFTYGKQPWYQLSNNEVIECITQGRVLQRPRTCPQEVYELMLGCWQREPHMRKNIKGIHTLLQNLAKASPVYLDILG
T3 sequence (P02768 25-609): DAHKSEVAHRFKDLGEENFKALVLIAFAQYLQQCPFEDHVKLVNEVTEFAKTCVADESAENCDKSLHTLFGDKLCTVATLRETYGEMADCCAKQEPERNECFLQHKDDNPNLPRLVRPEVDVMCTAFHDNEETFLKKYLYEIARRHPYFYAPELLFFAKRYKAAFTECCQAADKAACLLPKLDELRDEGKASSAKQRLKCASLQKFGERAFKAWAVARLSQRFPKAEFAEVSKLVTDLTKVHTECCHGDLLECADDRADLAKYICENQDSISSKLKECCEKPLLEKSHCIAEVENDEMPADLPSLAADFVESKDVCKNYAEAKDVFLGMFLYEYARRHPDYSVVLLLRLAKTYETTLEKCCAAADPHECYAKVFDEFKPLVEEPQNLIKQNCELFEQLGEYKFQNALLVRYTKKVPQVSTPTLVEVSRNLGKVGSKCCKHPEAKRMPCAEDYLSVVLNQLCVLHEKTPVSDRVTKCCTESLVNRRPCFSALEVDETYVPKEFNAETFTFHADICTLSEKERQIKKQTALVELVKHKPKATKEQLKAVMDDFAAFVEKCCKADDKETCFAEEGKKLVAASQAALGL
Sequence of TrkB receptor on rat primary cultured neurons (corpus striatum of rat embryo) (Q63604 32-821): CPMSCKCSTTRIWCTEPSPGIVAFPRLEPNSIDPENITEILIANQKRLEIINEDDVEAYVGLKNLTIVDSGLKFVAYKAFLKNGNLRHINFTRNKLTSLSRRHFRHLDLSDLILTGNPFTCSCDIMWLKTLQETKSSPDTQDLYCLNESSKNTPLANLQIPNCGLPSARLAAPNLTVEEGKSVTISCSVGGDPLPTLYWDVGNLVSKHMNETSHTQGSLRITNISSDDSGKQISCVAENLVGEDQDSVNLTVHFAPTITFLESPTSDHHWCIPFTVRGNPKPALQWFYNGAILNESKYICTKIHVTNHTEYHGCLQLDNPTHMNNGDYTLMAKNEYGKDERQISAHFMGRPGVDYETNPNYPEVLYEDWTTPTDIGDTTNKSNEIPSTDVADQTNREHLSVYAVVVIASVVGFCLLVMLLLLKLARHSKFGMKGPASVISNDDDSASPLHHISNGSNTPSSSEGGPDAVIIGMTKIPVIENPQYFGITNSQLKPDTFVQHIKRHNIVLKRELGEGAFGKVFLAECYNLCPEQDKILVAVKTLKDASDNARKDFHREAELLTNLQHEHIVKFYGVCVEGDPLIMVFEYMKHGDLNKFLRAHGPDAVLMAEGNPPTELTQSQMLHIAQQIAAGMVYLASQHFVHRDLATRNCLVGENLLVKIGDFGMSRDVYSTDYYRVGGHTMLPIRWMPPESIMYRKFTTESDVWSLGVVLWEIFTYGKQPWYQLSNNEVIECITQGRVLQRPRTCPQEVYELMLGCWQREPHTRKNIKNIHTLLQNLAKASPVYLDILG

B2: hBDNF-anti-hTfR antibody (3N) 1 (other)
heavy: HSDPARRGELSVCDSISEWVTAADKKTAVDMSGGTVTVLEKVPVSKGQLKQYFYETKCNPMGYTKEGCRGIDKRHWNSQCRTTQSYVRALTMDSKKRIGWRFIRIDTSCVCTLTIKRGRGGGGSGGGGSGGGGSGGGGSGGGGSEVQLVQSGAEVKKPGESLKISCKGSGYSFMNYWLGWVRQMPGKGLEWMGDIYPGGDYPTYSEKFKVQVTISADKSISTAYLQLSSLKASDTAMYYCARSGNYDEVAYWGQGTLVTVSSASTKGPSVFPLAPSSKSTSGGTAALGCLVKDYFPEPVTVSWNSGALTSGVHTFPAVLQSSGLYSLSSVVTVPSSSLGTQTYICNVNHKPSNTKVDKKVEPKSCDKTHT
light: DIVMTQTPLSLSVTPGQPASISCRSSQSLVHSNGNTYLHWYLQKPGQSPQLLIYKVSNRFSGVPDRFSGSGSGTDFTLKISRVEAEDVGVYYCSQSTHVPWTFGQGTKVEIKRTVAAPSVFIFPPSDEQLKSGTASVVCLLNNFYPREAKVQWKVDNALQSGNSQESVTEQDSKDSTYSLSSTLTLSKADYEKHKVYACEVTHQGLSSPVTKSFNRGEC
notes: copies set to 2 on that ground; also called anti-hTfR antibody fusion BDNF; hBDNF-humanized anti-hTfR antibody fusion protein
BDNF activity (TrkB agonistic: EC50, nmol/L) [1]: 0.43 nmol/L
Kd [2]: 0.794 nM
koff [2]: 0.000196 s⁻¹
kon [2]: 245000 M⁻¹ s⁻¹
Kd [3]: 0.00742 nM
koff [3]: 3.54e-06 s⁻¹
kon [3]: 477000 M⁻¹ s⁻¹
Erk phosphorylation activity (EC50, nmol/L) [4]: 0.02 nmol/L

B4: humanized anti-hTfR antibody No. 3N (antibody, human IgG1, kappa, V domains shown)
VH: EVQLVQSGAEVKKPGESLKISCKGSGYSFMNYWLGWVRQMPGKGLEWMGDIYPGGDYPTYSEKFKVQVTISADKSISTAYLQLSSLKASDTAMYYCARSGNYDEVAYWGQGTLVTVSS
VL: DIVMTQTPLSLSVTPGQPASISCRSSQSLVHSNGNTYLHWYLQKPGQSPQLLIYKVSNRFSGVPDRFSGSGSGTDFTLKISRVEAEDVGVYYCSQSTHVPWTFGQGTKVEIKR
notes: IgG1; Same light chain as humanized No. 3; also called Humanized anti-hTfR antibody 3N
KD relative to that of the humanized anti-hTfR antibody No. 3 [8]: ~0.033 fold
affinity relative to that of the humanized anti-hTfR antibody No. 3 [8]: ~30 fold

Continued, values first:

BDNF activity (TrkB agonistic: EC50, nmol/L) [1]: 0.16 nmol/L
Kd [2]: 39.4 nM
Kd [3]: 0.251 nM
B1: hBDNF-anti-hTfR antibody (3) 1 (other)
heavy: HSDPARRGELSVCDSISEWVTAADKKTAVDMSGGTVTVLEKVPVSKGQLKQYFYETKCNPMGYTKEGCRGIDKRHWNSQCRTTQSYVRALTMDSKKRIGWRFIRIDTSCVCTLTIKRGRGSGGGGSGGGGSGGGGSGGGGSGGGGSEVQLVQSGAEVKKPGESLKISCKGSGYSFTNYWLGWVRQMPGKGLEWMGDIYPGGDYPTYSEKFKVQVTISADKSISTAYLQWSSLKASDTAMYYCARSGNYDEVAYWGQGTLVTVSSASTKGPSVFPLAPSSKSTSGGTAALGCLVKDYFPEPVTVSWNSGALTSGVHTFPAVLQSSGLYSLSSVVTVPSSSLGTQTYICNVNHKPSNTKVDKKVEPKSCDKTHT
light: DIVMTQTPLSLSVTPGQPASISCRSSQSLVHSNGNTYLHWYLQKPGQSPQLLIYKVSNRFSGVPDRFSGSGSGTDFTLKISRVEAEDVGVYYCSQSTHVPWTFGQGTKVEIKRTVAAPSVFIFPPSDEQLKSGTASVVCLLNNFYPREAKVQWKVDNALQSGNSQESVTEQDSKDSTYSLSSTLTLSKADYEKHKVYACEVTHQGLSSPVTKSFNRGEC

Kd [5]: 0.626 nM
koff [5]: 0.000145 s⁻¹
kon [5]: 231000 M⁻¹ s⁻¹
Kd [6]: 0.0566 nM
koff [6]: 4e-05 s⁻¹
kon [6]: 707000 M⁻¹ s⁻¹
BDNF activity (TrkB agonistic: EC50, nmol/L) [1]: 0.3 nmol/L
Kd [7]: 13.5 nM
koff [7]: 0.000829 s⁻¹
kon [7]: 61300 M⁻¹ s⁻¹
Erk phosphorylation activity (EC50, nmol/L) [4]: 0.02 nmol/L
B3: hBDNF-anti-hTfR antibody (3N) ABD (other)
heavy: HSDPARRGELSVCDSISEWVTAADKKTAVDMSGGTVTVLEKVPVSKGQLKQYFYETKCNPMGYTKEGCRGIDKRHWNSQCRTTQSYVRALTMDSKKRIGWRFIRIDTSCVCTLTIKRGRGGGGSGGGGSGGGGSGGGGSGGGGSEVQLVQSGAEVKKPGESLKISCKGSGYSFMNYWLGWVRQMPGKGLEWMGDIYPGGDYPTYSEKFKVQVTISADKSISTAYLQLSSLKASDTAMYYCARSGNYDEVAYWGQGTLVTVSSASTKGPSVFPLAPSSKSTSGGTAALGCLVKDYFPEPVTVSWNSGALTSGVHTFPAVLQSSGLYSLSSVVTVPSSSLGTQTYICNVNHKPSNTKVDKKVGGGGSGGGGSGGGGSLAEAKVLALRELDKYGVSDYYKDLIDKAKTVEGVKALIDEILAALP
light: DIVMTQTPLSLSVTPGQPASISCRSSQSLVHSNGNTYLHWYLQKPGQSPQLLIYKVSNRFSGVPDRFSGSGSGTDFTLKISRVEAEDVGVYYCSQSTHVPWTFGQGTKVEIKRTVAAPSVFIFPPSDEQLKSGTASVVCLLNNFYPREAKVQWKVDNALQSGNSQESVTEQDSKDSTYSLSSTLTLSKADYEKHKVYACEVTHQGLSSPVTKSFNRGEC
notes: BDNF-Fab-ABD fusion
